Assay results published in patent publication US20220242950A1 (CANTARGIA, published 2022).
Where a chain is given by its changes, count along the chain named. One block for each binder: values may come before it.

What was measured:
[1] = target: T1, recombinant hIL1RAP Domain1+2+3 (aa21-367) (human, UniProt Q9NPH3 21-367); assay: bio-layer interferometry, human IL1RAP
T1 construct: Numbering on Uniprot Q9NPH3
T1 sequence (looked up): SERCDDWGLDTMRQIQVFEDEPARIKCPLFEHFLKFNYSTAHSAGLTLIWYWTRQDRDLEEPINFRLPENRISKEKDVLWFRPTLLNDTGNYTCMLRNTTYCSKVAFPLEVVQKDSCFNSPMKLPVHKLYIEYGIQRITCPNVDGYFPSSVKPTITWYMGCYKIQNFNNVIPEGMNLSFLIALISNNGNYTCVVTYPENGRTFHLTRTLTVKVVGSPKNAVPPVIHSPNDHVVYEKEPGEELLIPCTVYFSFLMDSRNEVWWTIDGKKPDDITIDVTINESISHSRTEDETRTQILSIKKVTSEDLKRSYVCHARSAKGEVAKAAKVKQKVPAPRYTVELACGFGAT
Experimental: Affinity measurements were done on BLItz™ Label-Free Protein Analysis System from ForteBio, using the Basic Kinetics module in the BLItz Pro 1.3.1.3 software from Molecular Devices. Protein A biosensors were hydrated in blocking buffer (PBS, 0.5% BSA, 0.05% Tween 20, pH 7.4) for minimum 10 min at room temperature before coating. Protein A biosensors were coated with antibodies by dipping the biosensors in 200 μl of antibody solution (10 μg/ml in blocking buffer) for 30 min at room temperature. The sensors were then incubated in 200 μl blocking buffer for at least 10 min before use. […] The baseline was made in blocking buffer with a duration time of 30 sec. Association was made for 120 sec in hIL1RAP followed by 120 sec dissociation in blocking buffer.
The antibodies were characterized for A) binding (ELISA analysis, human and cynomolgus monkey IL1RAP), B) inhibition of cytokine signaling (HEK-Blue™ assay), C) affinity (Bio-layer interferometry), D) size heterogeneity (SE-HPLC) and E) yield (concentration, A280). […] SE-HPLC was performed using standard procedures and PBS as running buffer. Affinity and cytokine inhibition were measured as previously described in Example 10. All 25 humanized clones were analyzed for blocking activity on IL-1α, IL-1β and IL-33 signaling while only the clones that had retained the inhibitory activity similar to chimeric 48D2 were analyzed for IL-36 inhibition.
KD values for affinity towards human IL1RAP are shown in Table 11 for the humanized 48D2 variants. Affinity was measured using bio-layer interferometry. […] See also Table 4 for a direct comparison of chimeric 48D2, humanized 48D2 variant VH5:VL4, and a humanized and de-immunized 48D2 variant VH5.GL:VL4.

[2] = target: T2, recombinant mf IL1RAP aa21-367 (cynomolgus monkey (Macaca fascicularis), UniProt A0A2K5X5J5 21-367); assay: binding ELISA, coated recombinant mf IL1RAP aa21-367
T2 construct: also called cynomolgus monkey IL1RAP; cyno IL1RAP
T2 sequence: T1 sequence (looked up) with L183F, T273P, K326T

[3] = target: T3, human IL1RAP on the cell surface (human, UniProt Q9NPH3 21-570); assay: cell-based or functional assay
T3 sequence (looked up): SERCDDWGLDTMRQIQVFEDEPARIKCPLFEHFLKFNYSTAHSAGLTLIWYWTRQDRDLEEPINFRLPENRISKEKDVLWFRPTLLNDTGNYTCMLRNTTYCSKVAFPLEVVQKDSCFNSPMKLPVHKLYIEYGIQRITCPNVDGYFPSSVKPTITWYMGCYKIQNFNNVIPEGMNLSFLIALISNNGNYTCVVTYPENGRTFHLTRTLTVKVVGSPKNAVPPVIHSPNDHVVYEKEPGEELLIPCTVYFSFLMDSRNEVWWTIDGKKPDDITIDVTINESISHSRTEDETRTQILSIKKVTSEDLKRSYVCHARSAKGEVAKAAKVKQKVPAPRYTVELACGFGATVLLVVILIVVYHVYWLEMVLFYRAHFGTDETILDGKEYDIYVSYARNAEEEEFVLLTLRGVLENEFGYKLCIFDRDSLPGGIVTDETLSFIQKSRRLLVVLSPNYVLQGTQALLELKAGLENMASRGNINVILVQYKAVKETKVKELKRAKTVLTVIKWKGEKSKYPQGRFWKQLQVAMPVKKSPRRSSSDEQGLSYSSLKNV

[4] = target: T1, recombinant hIL1RAP Domain1+2+3 …; assay: binding ELISA, coated recombinant hIL1RAP aa21-367

B1: h48D2 VH5:VL1 (antibody, human IgG1, kappa, L234A L235A, V domains shown)
VH: QEQLEESGGGLVKPGGTLSLTCTVSGPSLSHFDITWIRQAPGSGLEWIGTISPGVSTYYASWAKSRVTISVDTSLNTVSLKLSSVTAADTATYFCARGGVGSSWKAFDLWGPGTLVTISS
VL: DIVMTQSPSSLSASVGDRVTITCQASESISTALAWYQQKPGKAPKLLIYKASTLPSGVPSRFSGSGSGTDFTLTISSLQPEDFATYYCQQGFSSGNVHNAFGGGTKVVIKR
notes: Humanized; also called VL1:VH5
- Kd [1]: 2.75 nM
- IC50 [2]: 0.0261 µg/mL
- IC50 of IL-1α signaling (HEK-Blue assay) [3]: 2.14 nM
- IC50 of IL-33 signaling (HEK-Blue assay) [3]: 3.14 nM
- IC50 of IL-36α signaling (HEK-Blue assay) [3]: 0.286 nM
- IC50 of IL-36γ signaling (HEK-Blue assay) [3]: 3.1 nM
- IC50 [4]: 0.0248 µg/mL

B2: h48D2 VH1:VL1 (antibody, human IgG1, kappa, L234A L235A, V domains shown)
VH: EVQLEESGGGLVKPGGSLRLSCAASGPSLSHFDITWVRQAPGKGLEWVSTISPGVSTYYASWAKSRFTISRDNSKNTLYLQMNSLRAEDTAVYYCARGGVGSSWKAFDLWGRGTLVTVSS
VL: B1 VL
notes: Humanized; also called VL1:VH1
- Kd [1]: 30.3 nM
- IC50 [2]: 0.0226 µg/mL
- IC50 of IL-1α signaling (HEK-Blue assay) [3]: 227 nM
- IC50 of IL-1β signaling (HEK-Blue assay) [3]: 51.6 nM
- IC50 of IL-33 signaling (HEK-Blue assay) [3]: 254 nM
- IC50 [4]: 0.0181 µg/mL

B5: h48D2 VH1:VL3 (antibody, human IgG1, kappa, L234A L235A, V domains shown)
VH: B2 VH
VL: DILLTQTPSVVSASVGDRVTITCQASESISTALAWYQQKPGQAPRLLIYKASTLPSGVPSRFRGSGSGTDFTLTITSLQPEDFATYYCQQGFSSGNVHNAFGGGTRLEIKR
notes: Humanized; also called VL3:VH1
- Kd [1]: 35 nM
- IC50 [2]: 0.018 µg/mL
- IC50 of IL-1α signaling (HEK-Blue assay) [3]: 231 nM
- IC50 of IL-1β signaling (HEK-Blue assay) [3]: 17.2 nM
- IC50 of IL-33 signaling (HEK-Blue assay) [3]: 195 nM
- IC50 [4]: 0.0201 µg/mL

B6: h48D2 VH1:VL2 (antibody, human IgG1, kappa, L234A L235A, V domains shown)
VH: B2 VH
VL: B1 VL with D1Q, M4L, S9A, S10T, D70E, E81D, F83S, G103Q, V107L, V108E
notes: Humanized; also called VL2:VH1
- Kd [1]: 33.7 nM
- IC50 [2]: 0.0198 µg/mL
- IC50 of IL-1α signaling (HEK-Blue assay) [3]: 242 nM
- IC50 of IL-1β signaling (HEK-Blue assay) [3]: 37.6 nM
- IC50 [4]: 0.0182 µg/mL

B7: h48D2 VH3:VL4 (antibody, human IgG1, kappa, L234A L235A, V domains shown)
VH: B2 VH with E5L, K13L, N83S, R112L, L115T
VL: B1 VL with D1E, I2L, L11V, S76N, V108E
notes: Humanized; also called VL4:VH3
- Kd [1]: 29.6 nM
- IC50 [2]: 0.0303 µg/mL
- IC50 of IL-1β signaling (HEK-Blue assay) [3]: 22.3 nM
- IC50 [4]: 0.0263 µg/mL

B8: h48D2 VH3:VL1 (antibody, human IgG1, kappa, L234A L235A, V domains shown)
VH: B2 VH with E5L, K13L, N83S, R112L, L115T
VL: B1 VL
notes: Humanized; also called VL1:VH3
- Kd [1]: 28 nM
- IC50 [2]: 0.0294 µg/mL
- IC50 of IL-1β signaling (HEK-Blue assay) [3]: 9.54 nM
- IC50 of IL-33 signaling (HEK-Blue assay) [3]: ~87500 nM
- IC50 [4]: 0.0257 µg/mL

B9: h48D2 VH2:VL1 (antibody, human IgG1, kappa, L234A L235A, V domains shown)
VH: EVQLVESGGALVQPGGSLRLSCIVSGPSLSHFDITWFRQAPGKGLEWVATISPGVSTYYASWAKSRFTISTDTSKNTLFLQMDSLRAEDTAVYYCARGGVGSSWKAFDLWGPGTLVTVSS
VL: B1 VL
notes: Humanized; also called VL1:VH2
- Kd [1]: 13.2 nM
- IC50 [2]: 0.0279 µg/mL
- IC50 of IL-1α signaling (HEK-Blue assay) [3]: ~43800 nM
- IC50 of IL-1β signaling (HEK-Blue assay) [3]: 2.75 nM
- IC50 [4]: 0.0238 µg/mL

B10: h48D2 VH1:VL4 (antibody, human IgG1, kappa, L234A L235A, V domains shown)
VH: B2 VH
VL: B1 VL with D1E, I2L, L11V, S76N, V108E
notes: Humanized; also called VL4:VH1
- Kd [1]: 42.9 nM
- IC50 [2]: 0.02 µg/mL
- IC50 of IL-1α signaling (HEK-Blue assay) [3]: 347 nM
- IC50 of IL-1β signaling (HEK-Blue assay) [3]: 14.6 nM
- IC50 [4]: 0.019 µg/mL

B11: h48D2 VH1:VL5 (antibody, human IgG1, kappa, L234A L235A, V domains shown)
VH: B2 VH
VL: APVLTQSPATLEASVGDRVTITCQASESISTALAWYQQKPGQPPKLLIYKASTLPSGVPSRFSGSGSGTEFTLTISDLESDDAATYYCQQGFSSGNVHNAFGGGTEVVVKR
notes: Humanized; also called VL5:VH1
- Kd [1]: 31.6 nM
- IC50 [2]: 0.0242 µg/mL
- IC50 of IL-1α signaling (HEK-Blue assay) [3]: 528 nM
- IC50 of IL-1β signaling (HEK-Blue assay) [3]: 20.2 nM
- IC50 of IL-33 signaling (HEK-Blue assay) [3]: 74.7 nM
- IC50 [4]: 0.0234 µg/mL

Further lines, results first:

- Kd [1]: 4.27 nM
- IC50 [2]: 0.0218 µg/mL
- IC50 of IL-1α signaling (HEK-Blue assay) [3]: 3.77 nM
- IC50 of IL-33 signaling (HEK-Blue assay) [3]: 0.647 nM
- IC50 of IL-36γ signaling (HEK-Blue assay) [3]: 0.253 nM
- IC50 [4]: 0.0231 µg/mL
B3: h48D2 VH5:VL2 (antibody, human IgG1, kappa, L234A L235A, V domains shown)
VH: B1 VH
VL: B1 VL with D1Q, M4L, S9A, S10T, D70E, E81D, F83S, G103Q, V107L, V108E
notes: Humanized; also called VL2:VH5

- Kd [1]: 2.33 nM
- IC50 [2]: 0.0288 µg/mL
- IC50 of IL-1α signaling (HEK-Blue assay) [3]: 4.45 nM
- IC50 of IL-33 signaling (HEK-Blue assay) [3]: 2.72 nM
- IC50 of IL-36α signaling (HEK-Blue assay) [3]: 0.0779 nM
- IC50 of IL-36β signaling (HEK-Blue assay) [3]: 17.4 nM
- IC50 of IL-36γ signaling (HEK-Blue assay) [3]: 0.167 nM
- IC50 [4]: 0.0249 µg/mL
B4: h48D2 VH5:VL3 (antibody, human IgG1, kappa, L234A L235A, V domains shown)
VH: B1 VH
VL: B5 VL
notes: Humanized; also called VL3:VH5

- Kd [1]: 12 nM
- IC50 [2]: 0.0279 µg/mL
- IC50 of IL-1α signaling (HEK-Blue assay) [3]: 401 nM
- IC50 of IL-1β signaling (HEK-Blue assay) [3]: 5.77 nM
- IC50 of IL-33 signaling (HEK-Blue assay) [3]: 183 nM
- IC50 [4]: 0.0249 µg/mL
B12: h48D2 VH2:VL5 (antibody, human IgG1, kappa, L234A L235A, V domains shown)
VH: B9 VH
VL: B11 VL
notes: Humanized; also called VL5:VH2

- Kd [1]: 1.68 nM
- IC50 [2]: 0.0313 µg/mL
- IC50 of IL-1α signaling (HEK-Blue assay) [3]: 6.3 nM
- IC50 of IL-33 signaling (HEK-Blue assay) [3]: 1.23 nM
- IC50 of IL-36β signaling (HEK-Blue assay) [3]: 11.1 nM
- IC50 of IL-36γ signaling (HEK-Blue assay) [3]: 0.192 nM
- IC50 [4]: 0.0276 µg/mL
B13: h48D2 VH5:VL5 (antibody, human IgG1, kappa, L234A L235A)
heavy: not shown
light: APVLTQSPATLEASVGDRVTITCQASESISTALAWYQQKPGQPPKLLIYKASTLPSGVPSRFSGSGSGTEFTLTISDLESDDAATYYCQQGFSSGNVHNAFGGGTEVVVKRTVAAPSVFIFPPSDEQLKSGTASVVCLLNNFYPREAKVQWKVDNALQSGNSQESVTEQDSKDSTYSLSSTLTLSKADYEKHKVYACEVTHQGLSSPVTKSFNRGEC
notes: Humanized; also called VL5:VH5
